# Measured values published in a protein production outcome set (Wang et al. 2014).
# Assay: label from the status in PepcDB records
row,Sequence,protein production
1,MCPEFQRKAAGAPRMGAMLARCVLTAALALQAAAAARAVEIEIGVASRGVVDGLEFVQFSADERTMATTHWGNVVHLWDLKTLRVRSSVSVANRDFDFDLSPDGRALAVWNEEGKGEIELYDTDNGQPARALPAPRLPQGESRRGRSLVYRDDGTLEFVSHGWIGGHARKAYLLAVPAGQPRAAETPLPALVNSVAFRKSAVMDQGRLLLAGVDGADDELAIMDIASGRMLAREPGFRIASYAADARRAVFVEADGKQRILAFDFSSRSLSTLPRWTGSGKFQPYRFVAGTRFLVLAPDEPDASTRRAAPGIYDLQTRRLHRLPPDADPGSIDVWGATASYVLCNPDHTACQAEVADLAISRKLGTFAVQPSADFRTWISPSGSMVVVGGADDGTMMVWSVKEQRVIGPNLEHHHHHH,failed
2,MCRNNREDIFNLVPINIISSKFHVKVIGGGKAATIKVKGLLEKGCYVHILSKEFSKEILDIENKNLKLEKGNYYKEFIKDAHLIIIAVNESSLVYKISKDCEKEYKLYLNAANYKEGMVAIPYSRCYENLGFSISSKLGSPRITRAIGEEVSNIIKENDIYSIKVAKIREKAKKEELKDNIIEIISSKEFKNAILEKREYEYLKNLLGEELANSLTLGLK,failed
3,MCSKQSANQQISYRQTAEATLDKGMDNQPEAPYWFPKQLLKWQLSKDKAAKYNTASVPLAKRIDKWQLPTVNKTQDPKMKVVALSIMNSSTSGNAPRGINTFDANVFSNWQYIDQLVYWGGSAGEGLIVPPTADVIDSAHKNGVPVLGTVFFPQVVSGGKLKWLNDFLKQDADGHFPMADKLVAVAKAYGFDGWFINQETDPEVKSFDSASTGKTATSSTSNGLSKKHAQLMQQLIKEYKQKAGSKLDLMWYDSMTKDGKMDWQNALTKENQSYLVDANMKPVADSMFLNFWWTKKRLASQELLKKSHERAEKLGISPYNLFAGIDVQADGTATPVRWNLFANKQHVPYTSLGLYAPDWTHASSDTVDEFQAKEGALWVNDQNDPSRSIPSTTSTHWPGVSTYAVEQSAITKQPFVTNFSLGNGYNYFIKLEHHHHHH,failed
4,MCSSDSLQLHNVFVYGSFQDPDVINVMLDRTPEIVSATLPGFQRFRLKGRLYPCIVPSEKGEVHGKVLMGVTSDELENLDAVEGNEYERVTVGIVREDNSEKMAVKTYMWINKADPDMFGEWNFEEWKRLHKKKFIETFKKIMECKKKPQGQGNDDISHVLREDQ,not failed
5,MCTIFKVNGKIHIKELISSIVIAEGVGALSGFLSMSNVKNYSNLKKPFFSPPGFIFPIVWVILYFLMAVAAYRIWVIGKEESKDVKKALVLYAVQLLFNFLWSIIFFKFNCYGAAFIELLILLFFILCATFQFHKHDKVAAFLMIPYILWVSFAGILNFAIWFLNRNSST,failed
6,MDAADCYLEGNADAVEFCPHESYANLLAASTYTLQEGDCPSRSGSVYLFDVGDVEDVGLNLIQKIDTAGVFDIRWSRGGDGGDVALAQADADGCLIVYKIDETESKGTLREVSGKRISSSMCLCLDWDPSSTSIVVGLSDGSASVVSFTDSNLETVQEWKGHDFELWTASFDLNNPNLVYTGSDDCKFSCWDIRDSPADNRVFQNSKVHTMGVCCISSNPSDPYSIFTGSYDETLRVWDTRSVSRPLNETSVSLGGGVWRIKHHPSLSGVVLAACMHNGFALAKVSDGKGEVLESYNKHHSLAYGADWYRGKDQKQSVVATCSFYDRLLRVWMPITDFSTRCS,failed
7,MDAETAESLKLLKNISLYTETYGCTYNAGDTEKLMEIARNQGCVPASSAEEADAILINTCVVIDKTEQHMYERLDLYAGKLLFVTGCLPPVAADVLRTRYPKIHIIDPALIHSCYMEVGTAHVGTNAVLQIARGCNGHCTYCITRLARGKLVSFSAEDIVRQAKSIVEAGATEIQLTAQDTSSWGLDRNDGLRLPDLLRQLCAIPGNFMIRIGMANPDTLLPILDDFLDALKDPKIFLFLHIPVQSGSDSVLRLMGRRYTSAQYEEICQRARKAFPEIRISTDYIAGFSGETDEDAAKSAEQIRRTRPGKVNITRFSVRPNTPAAKMKKIPEPIKKQRSRELTDAANEVYDANNEALIGHIMTAVVTEVVKAGSVTARDRTYQNIVIMENLEIGTEITVKITGHRRHYLIGERIVP,failed
8,MDALIMAGGKGTRLKENVEKPILNICEKPMIDYVIDSLLNSKIEKIYVAVSIHTPKTKEYLEKKYRLDRNYNPKIDIICTSGTNYVDDLNECMEFFKEPFLILSSDIPTIKPKVINSIIQDYLFVNNSCNRIESFCVVTKDDDYVGTPSINMGGYIPLGINILTPKHGEQTEILHVIKDIIVNVNTLSDKKLVETLINKVVELEHHHHHH,not failed
